Experimental data reported in US20190094207A1 (JAPANESE FOUNDATION FOR CANCER RESEARCH, published 2019).
Residue numbers refer to the chain shown, from its start. Values belong to the binder of their own block, whether it stands above or below them.

Tests used:
[1] = biological target: T1, Wild type HP1α (His tag or GST tag attached) (UniProt P45973 1-191); test: alpha assay with acceptor and donor beads capturing His tag or GST tag
T1 construct: also called heterochromatin protein 1; not shown: His tag or GST tag
T1 sequence (P45973 whole entry): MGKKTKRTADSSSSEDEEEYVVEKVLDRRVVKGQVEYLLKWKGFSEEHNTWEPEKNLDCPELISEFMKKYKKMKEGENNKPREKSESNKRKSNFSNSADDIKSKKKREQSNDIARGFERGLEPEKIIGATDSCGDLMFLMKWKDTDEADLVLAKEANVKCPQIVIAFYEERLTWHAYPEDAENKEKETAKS
Procedure: If a candidate compound is added in the binding assay system, a compound influencing the binding of INCENP and HP1 can be screened. Further, a system for analyzing the binding of HP1 and INCENP based on an alpha assay, which is more sensitive and easier in operation, was constructed. The interaction between HP1α and INCENP was determined by using acceptor beads or donor beads that can capture His tag or GST tag and detecting fluorescent signal in accordance with a conventional method. As a result of that His tag or GST tag was attached to HP1α and a region at positions 160 to 210 in INCENP (SEQ ID NO: 10) and the aforementioned alpha assay using acceptor beads and donor beads was carried out, a binding can be sensitively detected. Accordingly, owing to HTS using the binding assay or alpha assay, compounds influencing the binding of HP1 and INCENP can be screened.

[2] = biological target: INCENP (Inner Centromere Protein), endogenous, as part of the chromosomal passenger complex (CPC) (human, UniProt Q9NQS7 1-918); test: INCENP immunoprecipitated from mitotic HeLa cell extract; amount of coprecipitated protein (INCENP in the same precipitate: 1280 pmol)
Chain of INCENP (Inner Centromere Protein), endogenous, as part of the chromosomal passenger complex (CPC) (Q9NQS7 whole entry, one chain of several): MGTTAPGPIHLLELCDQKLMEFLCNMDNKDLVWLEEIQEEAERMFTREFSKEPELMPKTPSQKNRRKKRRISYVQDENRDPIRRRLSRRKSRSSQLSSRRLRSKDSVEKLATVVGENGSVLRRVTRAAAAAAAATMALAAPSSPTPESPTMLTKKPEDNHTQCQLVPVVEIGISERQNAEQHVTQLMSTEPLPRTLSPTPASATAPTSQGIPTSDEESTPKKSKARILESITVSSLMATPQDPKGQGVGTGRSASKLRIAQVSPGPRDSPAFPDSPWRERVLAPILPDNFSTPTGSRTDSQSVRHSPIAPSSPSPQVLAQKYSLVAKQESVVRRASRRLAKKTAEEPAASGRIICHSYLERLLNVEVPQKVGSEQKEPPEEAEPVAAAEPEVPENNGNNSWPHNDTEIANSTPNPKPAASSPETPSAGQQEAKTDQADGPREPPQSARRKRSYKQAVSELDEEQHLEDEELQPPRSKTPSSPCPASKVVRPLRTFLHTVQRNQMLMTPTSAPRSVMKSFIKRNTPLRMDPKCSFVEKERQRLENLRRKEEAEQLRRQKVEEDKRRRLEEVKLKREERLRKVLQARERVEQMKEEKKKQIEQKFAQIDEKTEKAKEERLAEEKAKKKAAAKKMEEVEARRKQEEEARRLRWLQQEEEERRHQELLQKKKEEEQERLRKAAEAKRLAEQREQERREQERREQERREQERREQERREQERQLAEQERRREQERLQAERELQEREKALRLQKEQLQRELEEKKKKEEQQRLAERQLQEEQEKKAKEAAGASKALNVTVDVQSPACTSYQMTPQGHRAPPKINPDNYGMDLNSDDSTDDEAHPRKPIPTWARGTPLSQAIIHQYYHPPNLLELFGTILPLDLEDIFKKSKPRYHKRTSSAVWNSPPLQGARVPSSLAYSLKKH
Procedure: The cells in the mitotic phase were incubated in a solution, which was prepared by adding 1 U/μl OmniCleave Endonuclease (manufactured by Epicentre) in the above immunoprecipitation buffer, at 4° C. for 30 minutes. The solution was centrifuged at 4° C. and 15,000 rpm for 10 minutes and the supernatant was further centrifuged. The resultant supernatant was used for immunoprecipitation. Protein A-Sepharose (manufactured by Bio-Rad) having an antibody bound thereto, was allowed to react with cell extracts and subjected to immunoprecipitation. […]
Next, whether or not binding to INCENP differs among the subtypes of HP1 was analyzed (FIG. 1B). […] Mitotic HeLa cell extracts were subjected to immunoprecipitation with an INCENP antibody or control IgG and then analyzed by immunoblotting using antibodies against INCENP, Aurora B (clone 6, manufactured by BD Bioscience) and Survivin (71G4B7E, manufactured by Cell Signaling Technology) constituting CPC; an HP1α antibody (clone 15.19s2, manufactured by Millipore), an HP1β antibody (clone 1MOD-1A9, manufactured by Millipore) and an HP1 γ antibody (clone 2MOD-1G6, manufactured by Millipore).
Quantitative analysis was carried out using purified recombinant HP1-subtype proteins.

[3] = biological target: T1, Wild type HP1α (His tag or GST tag …); test: isothermal titration calorimetry, average of 5 experiments
Procedure: (§1) Wild type HP1α and a region at positions 121 to 270 in INCENP (SEQ ID NO: 8, INCENP WT) were used in the binding assay. The region at positions 121 to 270 in INCENP contains an important motif […], required for binding to HP1. A mutant (SEQ ID NO: 9, INCENP 3A) was obtained by substituting three amino acids in this region with alanine residues and used as a control. A dissociation constant thereof was determined by isothermal titration calorimetry. As an isothermal titration calorimetry apparatus, any device may be used. For example, using MicroCal iTC2000 system (manufactured by GE healthcare biosciences), measurement may be carried out, in accordance with a conventional method.
(§2) The above peptides, to which His tag or GST tag was attached, were subjected to isothermal titration calorimetry to determine a dissociation constant. Note that, the dissociation constant was computationally obtained based on average values of 5 experiments.

[4] = biological target: T1, Wild type HP1α (His tag or GST tag …); test: isothermal titration calorimetry
Procedure: as §1, §2

GST-Aurora B = biological target: T2, GST-Aurora B (UniProt Q96GD4 1-344, limits assumed); test: GST pull down with recombinant full-length INCENP + GST-Aurora B, without HP1α, with HP1α WT or with I165E; immunoblot and bar chart of Hec1 binding
T2 construct: not shown: GST
Procedure: Then, enzyme kinetics analysis of Aurora B was carried out. […] Further, analysis of proteins binding to GST-Aurora B was carried out by the GST pull down assay. As a result, the amount of Hec1 binding to GST-Aurora B increased in the conditions where HP1 can bind to INCENP. […] Accordingly, binding of HP1α to INCENP is required for activating Aurora B.

binding result [1]: binds
B1: Region at positions 160 to 210 in INCENP (peptide)
chain: TQCQLVPVVEIGISERQNAEQHVTQLMSTEPLPRTLSPTPASATAPTSQG
notes: Used in the alpha assay with HP1α; also called INCENP 160-210; not shown: His tag or GST tag

Amount [2]: 1110 pmol
B2: Aurora B (endogenous) (enzyme, human, UniProt Q96GD4 1-344, looked up)
chain: MAQKENSYPWPYGRQTAPSGLSTLPQRVLRKEPVTPSALVLMSRSNVQPTAAPGQKVMENSSGTPDILTRHFTIDDFEIGRPLGKGKFGNVYLAREKKSHFIVALKVLFKSQIEKEGVEHQLRREIEIQAHLHHPNILRLYNYFYDRRRIYLILEYAPRGELYKELQKSCTFDEQRTATIMEELADALMYCHGKKVIHRDIKPENLLLGLKGELKIADFGWSVHAPSLRRKTMCGTLDYLPPEMIEGRMHNEKVDLWCIGVLCYELLVGNPPFESASHNETYRRIVKVDLKFPASVPMGAQDLISKLLRHNPSERLPLAQVSAHPWVRANSRRVLPPSALQSVA

Kd [3]: 102 nM
B3: INCENP WT (region at positions 121 to 270 in INCENP) (peptide)
chain: LRRVTRAAAAAAAATMALAAPSSPTPESPTMLTKKPEDNHTQCQLVPVVEIGISERQNAEQHVTQLMSTEPLPRTLSPTPASATAPTSQGIPTSDEESTPKKSKARILESITVSSLMATPQDPKGQGVGTGRSASKLRIAQVSPGPRDSP
notes: also called INCENP 121-270; not shown: His tag or GST tag

binding result [4]: no binding
B4: INCENP 3A (region 121 to 270 of INCENP with three amino acids substituted with alanine) (peptide)
chain: B3 chain with P47A, V49A, I51A
notes: also called INCENP 3A mutant; not shown: His tag or GST tag

binding result (GST-Aurora B): binds
B5: Hec1 (other, UniProt O14777 1-80, looked up)
chain: MKRSSVSSGGAGRLSMQELRSQDVNKQGLYTPQTKEKPTFGKLSINKPTSERKVSLFGKRTSGHGSRNSQLGIFSSSEKI
notes: also called Aurora B substrate
